The record followed here is ChEMBL document CHEMBL2074194.

Substrate in data set [1]: C[N+](C)(C)CCO
Nature of the data set: cells, lysate or membranes named.

Substrate in data set [2]: CC[N+](CC)(CC)CC
Nature of the data set: cells, lysate or membranes named.

B1: Solute carrier family 22 member 2 (Rattus norvegicus) (protein)
chain: MSTVDDILEHIGEFHLFQKQTFFLLALLSGAFTPIYVGIVFLGFTPDHHCWSPGAAKLSQRCGWSQAEELNYTVPGLGPSDEASFLSQCMRYEVDWNQSTLDCVDPLSSLAADRNQLPLGPCEHGWVYNTPGSSIVTEFNLVCAHSWMLDLFQSVVNVGFFIGAMMIGYLADRFGRKFCLLVTILINAISGALMAISPNYAWMLVFRFLQGLVSKAGWLIGYILITEFVGLGYRRMVGICYQIAFTVGLLILAGVAYVIPNWRWLQFAVTLPNFCFLLYFWCIPESPRWLISQNKIVKAMKIIKHIAKKNGKSVPVSLQNLTPDEDAGKKLNPSFLDLVRTPQIRKHTLILMYNWFTSSVLYQGLIMHMGLAGDNIYLDFFYSALVEFPAAFIIILTIDRVGRRYPWAVSNMVAGAACLASVFIPDDLQWLKITIACLGRMGITMAYEMVCLVNAELYPTYIRNLGVLVCSSMCDIGGIITPFLVYRLTDIWMEFPLVVFAVVGLVAGALVLLLPETKGKALPETIEDAENMQRPRKKKEKRIYLQVKQADRPLS
On to B1, for which the Michaelis-Menten constant (Km) in data set [1] turned out to be 2000 µM; in data set [2] it was 160 µM.

One may read the Km as the substrate concentration at which the rate is half of its maximum.
